Results taken from US20240228639A1 (ALLOGENE THERAPEUTICS, published 2024).
Several values for one entry are separate records, joined by “and”; a condition that tells them apart may be missing. Identical values can stand only once.

Columns and labels:
4F11 scFv 10xHis [1] = biological target: T1, 4F11 scFv 10xHis; test: SPR (Biacore T200), 37 C; antibody captured on anti-mouse Fc chip, 4F11 scFv 10xHis 1.2-100 nM as analyte; 1:1 Langmuir fit
T1 construct: also called 4F11-derived scFv with a His tag; anti-CD70 scFv 4F11
Experimental: (§1) All SPR analysis was determined on a BIACore T200 SPR instrument (Cytiva, Marlborough, MA). For kinetic analysis and determination of simultaneous target antigen binding of CD70 anti-idiotype antibodies, mouse Fc was captured on a Biacore Series S CM4 sensor chip by amine-coupling of an anti-mouse Fc reagent (Mouse Antibody Capture Kit, Cytiva, BR100838) to the Biacore Series S CM4 sensor chip using a running buffer of 10 mM HEPES, 150 mM NaCl, 0.05% (v/v) Tween-20, pH 7.4 at 25° C. All surfaces of the sensor chip were activated with a 1:1 (v/v) mixture of 400 mM 1-Ethyl-3-(3-Dimethylaminopropyl) carbodiimide hydrochloride (EDC) and 100 mM N-hydroxysuccinimide (NHS) for 7 min at 10 μL/min. The anti-mouse Fc reagent was diluted to 30 μg/mL in 10 mM sodium acetate (pH 5.0) and injected on all four flow cells for 7 min at 10 μL/min, then all flow cells were blocked with 100 mM ethylenediamine in 200 mM Borate buffer pH 8.5 for 7 min at […].
(§2) All interaction experiments were performed at 37° C. using the same running buffer as described above supplemented with 1 mg/mL BSA. […] The dissociation was monitored for 10 min followed by regeneration of all flow cells with 10 mM glycine at pH 1.7 for 3 min. […]

Biotin-hCD70 = biological target: T2, Biotin-hCD70 (human, UniProt P32970 39-193, limits assumed, biotinylated (site not stated)); test: SPR, Bt-hCD70 alone injected over clone 60 (hybridoma and recombinant) captured on anti-mouse Fc, then streptavidin
T2 construct: also called biotin-hCD70 complex; target antigen hCD70
T2 sequence (looked up): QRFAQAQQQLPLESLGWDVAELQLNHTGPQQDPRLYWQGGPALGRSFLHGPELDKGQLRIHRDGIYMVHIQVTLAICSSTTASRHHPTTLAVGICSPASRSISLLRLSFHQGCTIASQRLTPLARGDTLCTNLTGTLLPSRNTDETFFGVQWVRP

4F11 scFv 10xHis [2] = biological target: T1, 4F11 scFv 10xHis; test: SPR (Biacore), clone 60 captured on anti-mouse Fc, 4F11_scFv_0166-P as analyte, 37 C, 1:1 Binding model; Table 3 prints 1.43 nM for this lot, the sheet prints 1.422E-9
Experimental: as §1, §2

T1 sequence (scFv, as listed by the source): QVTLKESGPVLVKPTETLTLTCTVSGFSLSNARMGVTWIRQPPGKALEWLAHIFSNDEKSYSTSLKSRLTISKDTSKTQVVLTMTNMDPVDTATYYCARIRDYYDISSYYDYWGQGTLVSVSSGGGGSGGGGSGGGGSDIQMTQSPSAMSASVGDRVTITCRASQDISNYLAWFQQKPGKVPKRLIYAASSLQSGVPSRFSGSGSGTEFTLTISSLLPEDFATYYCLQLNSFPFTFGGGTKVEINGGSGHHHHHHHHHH

B1: anti-idiotype antibody Clone 60 (IDA2002-1.60) (antibody, mouse IgG1, kappa, V domains shown)
VH: EVQLQQSGPELVKTGTSVKISCKASGYSITGYYIHWVKQSHGRSLDWIGSISFYNGATTYNQKFKGKVTFTVDTSSSTAYMQFNSLTSEDSAVYYCGRRGDDYDVFAYWGQGTLVTVSA
VL: DIVLTQSPASLAVSLGQRATISCRASESVDSYGYSFLHWYQQKPGQPPTLLIYRASNLESGIPARFSGSGSRTDFTLTINSVEADDVATYYCQQSNEDPWTFGGGTKLEIKR
notes: Mouse IgG1 kappa; also called clone 1.60; Clone 60-PE
Kd (4F11 scFv 10xHis [1]): 1.43 nM and 1.52 nM and 1.42 nM and 1.32 nM
koff (4F11 scFv 10xHis [1]): 0.00343 s⁻¹ and 0.00359 s⁻¹ and 0.00312 s⁻¹ and 0.00348 s⁻¹
kon (4F11 scFv 10xHis [1]): 2.7e+06 M⁻¹ s⁻¹ and 2.2e+06 M⁻¹ s⁻¹ (2×) and 2.4e+06 M⁻¹ s⁻¹
t1/2 (4F11 scFv 10xHis [1]): 3.32 min and 3.37 min and 3.7 min and 3.22 min
binding result (Biotin-hCD70): no binding (tested: 1 uM)
Kd (4F11 scFv 10xHis [2]): 1.42 nM
